This assay has as its target transferrin receptor (TfR) (human) (UniProt P02786). Briefly: HeLa cell based 125I-transferrin assay.

transferrin receptor (TfR) (human), sequence (P02786 whole entry): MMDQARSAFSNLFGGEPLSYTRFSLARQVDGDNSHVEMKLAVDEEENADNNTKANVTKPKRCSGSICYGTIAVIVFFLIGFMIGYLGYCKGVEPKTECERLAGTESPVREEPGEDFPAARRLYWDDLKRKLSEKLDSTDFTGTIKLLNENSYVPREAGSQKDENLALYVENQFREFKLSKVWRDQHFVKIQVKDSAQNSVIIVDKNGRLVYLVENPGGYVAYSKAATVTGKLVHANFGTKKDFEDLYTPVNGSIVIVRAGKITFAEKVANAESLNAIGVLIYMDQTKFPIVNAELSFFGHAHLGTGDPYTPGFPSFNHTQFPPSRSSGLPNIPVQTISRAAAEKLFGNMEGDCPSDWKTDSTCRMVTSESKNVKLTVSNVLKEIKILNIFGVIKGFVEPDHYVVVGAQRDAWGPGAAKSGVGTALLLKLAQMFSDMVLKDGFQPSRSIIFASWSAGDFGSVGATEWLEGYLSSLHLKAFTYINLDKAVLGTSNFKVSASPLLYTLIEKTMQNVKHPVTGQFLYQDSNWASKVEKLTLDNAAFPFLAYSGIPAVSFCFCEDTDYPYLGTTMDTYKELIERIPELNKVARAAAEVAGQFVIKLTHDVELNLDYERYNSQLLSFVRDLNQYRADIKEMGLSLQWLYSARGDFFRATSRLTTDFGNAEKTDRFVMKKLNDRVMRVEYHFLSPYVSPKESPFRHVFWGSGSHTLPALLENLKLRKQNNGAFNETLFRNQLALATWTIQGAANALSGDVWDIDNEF

Consider “soluble H63D-HFE/β2m heterodimer (from UniProt P61769 21-119)”, for which the K was found to be 105 nM.

For the origin of these results see patent US20060287236A1.
